Reference: the supplement of paper PMC9170038

Experiments:
MS2 coat protein [1] = test: apparent KD of MS2 coat protein, switch ON state; designed switch direction (-1 OFF switch, 1 ON switch): 1; higher = weaker reporter binding; conditions: FMN input: 0 or 200 uM; Eterna round: R93 (includes R88 designs)
Procedure, shortened: (§1)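 Binding of SNAP-549-labelled MS2 coat protein was measured on designed RNA switches transcribed on-chip from Illumina sequencing clusters. The protein rose in twofold steps from 0.7 or 1.5 nM to 3 µM, with 0.8–1.5 h per step early on and 10–20 min per step later, in 100 mM Tris-HCl pH 7.5, 80 mM KCl, 4 mM MgCl2, without or with constant ligand. Each design's apparent KD is the median of fits to its normalised cluster binding curves.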

MS2 coat protein [2] = test: apparent KD of MS2 coat protein, switch OFF state (with FMN for OFF switches, without FMN for ON switches); designed switch direction (-1 OFF switch, 1 ON switch): 1; higher = weaker reporter binding; conditions: FMN input: 0 or 200 uM; Eterna round: R93 (includes R88 designs)
Procedure, shortened: as §1

Row | Sequence | apparent KD of MS2 coat protein (MS2 coat protein [1]) [nM] | apparent KD of MS2 coat protein (MS2 coat protein [2]) [nM]
1 | UAAAAACAUGAGGAUCACCCAUGUGAGAACAUGGGAGGAUAUACAAGGACGAAAGUCAAAGUAGAAGGCCUAAAAU [Mat - Same State 1 - Mod - D176] | 99.8 | 29.3
2 | AAGAAACAUGAGGAUCACCCAUGUGAUAAUAUGGGAGGAUAUACAAAGACGAAAGUCGAAGUAGAAGGCCUAUGAA [Garnet 43] | 36.8 | 62
3 | AAAAAACAUGAGGAUCACCCAUGUCGAAAGACAUGAGGAUAUGUGUGGAAACCAUACUAUACAGAAGGCAUAAAAA [SS1 - 1009] | 82.6 | 66.1
4 | AAAAAACAUGAGGAUCACCCAUGUAAUUAAAACGCAGGAUAUAGAAAAAAAAAAAUGUUACUAGAAGGGUGAAAAA ['Same State 1'] | 113 | 62.9
5 | AAAAACAUAGUUCAGGAUAUGGUAAUAGUCACAUGAGGAUCACCCAUGUUCAUUUAUAUGAGCGAUCAGAAGGGAGGUAAAAAAA [Mat - Same state - Malcolm Mod - D115] | 124 | 125
6 | AAAGAAAAACUAGAGGAUAUCCGAGUGGUAACAUGAGGAUCACCCAUGUGAAGAAAGGAGCGUGAGGAGAAGGCUAGAAGAAAAA [JL Nando mod 24] | 11 | 146
7 | AACAAUCUAUCUGAGGAUAUAUGUCAAAAGACAUGAGGAUCACCCAUGUAAAAACAUGAAAAAUAAUAGAAGGCAGAUAGAUUGA [SS2: 1140] | 59.9 | 52.4
8 | GUCCAACAUGAGGAUCACCCAUGUAAGCGUGAUCAAGGAUAUGGGCGAAAGAAAACGCAACCAGAAGGUGAGCGCC [Aanmati] | 160 | 135
9 | UGAAAACAUGAGGAUCACCCAUGUCUAGGAAAUCAAGGAUAUGGGCCGGCAAUAGGCGGGCCAGAAGGUGAGAAAU [Arisati] | 88.7 | 144
10 | UUAAGCCGCGGGCAGGAUAUGUAUUAAAAUACAUGAGGAUCACCCAUGUGCAGGUGUAACACCUGACAGAAGGGCCAAUCGCAGC [Ceanreerqu] | 26.4 | 228
11 | CGGGCCCGGGCGCAGGAUAUCUGAAAAAAAACAUGAGGAUCACCCAUGUGUGGGAAAAAAAAAAAAGAGAAGGGCGCCCGGGCCC [Natural State 2 -38.15 -4 kcal] | 29.4 | 48.6
12 | ACAAAACAUGAGGAUCACCCAUGUCAAGCUAAUCAAGGAUAUGGGAGCGGUCCGGUGCGAUCAGAAGGUGAUUAGA [Gecelear] | 99 | 53.2
13 | GAGAAACAUGAGGAUCACCCAUGUAGAAAUAUGGGAGGAUAUACAAAGACGAGAGUCAAAGUAGAAGGCCUAGAAG [77%, Mat - Mod of Eli - With 3 more G's] | 18.8 | 53.6
14 | AAAAAAAAAAGUGAGGAUAUGUGAUCGGUGACAUGAGGAUCACCCAUGUGAGGCCUUCGGGCCAAGCAGAAGGUAUAAAAAAAAA [Same State 2-VII] | 105 | 29.4
15 | AAAAAAAAAGUAGAGGAUAUCCGAGUGGUAACAUGAGGAUCACCCAUGUGAAGAAAGGAAGAUGAGGAGAAGGCUACAAAAAAAAA [Mat - Mod of Nando] | 21.2 | 42.2
16 | GAAAAACAUGAGGAUCACCCAUGUAAAAAUAUGGGAGGAUAUUGAAACACGAAAGUCAAACAAGAAGGCCUAAAAG [Garnet 3] | 44.1 | 147
17 | AAGAAACAUGAGGAUCACCCAUGUAGAAAUAUGGGAGGAUAUACGAAGACGAAAGUCGAAGUAGAAGGCCUAAGAA [Mat - Same State 1 - Meechl mod - D131] | 15.1 | 71.9
18 | AGAAGACAUGAGGAUCACCCAUGUGGGAAUAUGGGAGGAUAUACAAAGACGAGAGUCAGAGUAGAAGGCCUAGGCC [salish99-ss1-110] | 49.8 | 131
19 | GGAAAGAAAAGCGAGGAUAUGCUAGGUAAUACAUGAGGAUCACCCAUGUUUUUUUUUAACAAAUUGCAGAAGGCGCAAGAAAGAAA [Ungainly] | 16.5 | 18.2
20 | AAUAAACAUGAGGAUCACCCAUGUGAAAAUAUGGGAGGAUAUAGGAAAAAAAAAAAAAAACUAGAAGGCCCAAAAA [SS! 1 MT 12] | 75.3 | 138
21 | AUAUAAAUAAGGUAGGAUAUACUAAAGUAAACAUGAGGAUCACCCAUGUAAAGAAAGAAACUCAUGUAGAAGGACCAUAUAUAUA [viburnum 1] | 24.4 | 264
22 | GAAAAACAUGAGGAUCACCCAUGUAGAAACAUGGGAGGAUAUACAAAGACGAAAGUCAAAGUAGAAGGCCUAAAAA [Mat - Same State 1 - Mod - D160] | 149 | 851
